Test results taken from article PMC11063116.
Numbering of substitutions follows the chain as printed. In names and notes the source's numbering stands.

B1: BvHSS (homospermidine synthase) (Blastochloris viridis) (protein)
chain: MTDWPVYHRIDGPIVMIGFGSIGRGTLPLIERHFAFDRSKLVVIDPSDEARKLAEARGVRFIQQAVTRDNYRELLVPLLTAGPGQGFCVNLSVDTSSLDIMELARENGALYIDTVVEPWLGFYFDPDLKPEARSNYALRETVLAARRNKPGGTTAVSCCGANPGMVSWFVKQALVNLAADLGVTGEEPTTREEWARLAMDLGVKGIHIAERDTQRASFPKPFDVFVNTWSVEGFVSEGLQPAELGWGTFERWMPDNARGHDSGCGAGIYLLQPGANTRVRSWTPTAMAQYGFLVTHNESISIADFLTVRDAAGQAVYRPTCHYAYHPCNDAVLSLHEMFGSGKRQSDWRILDETEIVDGIDELGVLLYGHGKNAYWYGSQLSIEETRRIAPDQNATGLQVSSAVLAGMVWALENPNAGIVEADDLDFRRCLEVQTPYLGPVVGVYTDWTPLAGRPGLFPEDIDTSDPWQFRNVLVRD
B2: BvHSS (homospermidine synthase) (Blastochloris viridis; D361E/E232D) (protein)
chain: B1 chain with E232D, D361E
B3: BvHSS (homospermidine synthase) (Blastochloris viridis; D361E) (protein)
chain: B1 chain with D361E

substrate: NCCCN; assay: purified protein; settings: 2 mM putrescine, 0.6 mM NAD+, 100 mM Tris-HCl pH 9, 50 °C

Q: How did the Km turn out when B1 was run?
A: 490 ± 30 µM

Q: What about the kcat of the same protein?
A: 13.6 s⁻¹

Q: What about the kcat/Km of the same protein?
A: 27800 M⁻¹ s⁻¹

Q: With B2 as the protein, how does the Km read?
A: 310 ± 20 µM

Q: And the kcat?
A: 21.1 s⁻¹

Q: What about the kcat/Km of the same protein?
A: 68000 M⁻¹ s⁻¹

Q: B3 was tested. Which Km did it give?
A: 430 ± 60 µM

Q: What about the kcat of the same protein?
A: 19.3 s⁻¹

Q: What about the kcat/Km of the same protein?
A: 45000 M⁻¹ s⁻¹
